Earlier results as cited in publication PMC3951123.

Legend:
Assay in all cases: SPR
[1] = target: Syk linker B peptide SykLB-YpY (Mus musculus) (UniProt P48025)
[2] = target: Syk linker B peptide SykLB-pYY (Mus musculus) (UniProt P48025)
[3] = target: Syk linker B peptide SykLB-pYpY (Mus musculus) (UniProt P48025)

Kd [1]: 71 µM | Kd [2]: 14.6 µM | Kd [3]: 7.4 µM
Substance: Vav1 SH2 (from UniProt P15498)
